Source: doi:10.1101/2022.11.10.516004 (bioRxiv, 2022)

Target: the molecule itself
Test: NMR titration

B1: TDP-43 C-terminal domain (CTD), wild type (domain or fragment, human, UniProt Q13148 267-414, looked up)
chain: NRQLERSGRFGGNPGGFGNQGGFGNSRGGGAGLGNNQGSNMGGGMNFGAFSINPAMMAAAQAALQSSWGMMGMLASQQNQSGPSGNNQNQGNMQREPNQAFGSGNNSYSGSNSGAAIGWGSASNAGSGSGFNGGFGSSMDSKSSGWGM
Q: Does B1 bind?
A: Result: binds
